Assay: label from the status in PepcDB records

Row | Sequence | protein production
1 | MGTTGFTIIDLIILIVYLLAVLVAGIYFSKKEMKGKEFFKGDGSVPWYVTSVSIFATMLSPISFLGLAGSSYAGSWILWFAQLGMVVAIPLTIRFILPIFARIDIDTAYDYLDKRFNSKALRIISALLFIIYQLGRMSIIMYLPSAGLSVLTGIDINILIILMGVVAIVYSYTGGLKSVLWTDFIQGVILISGVVLALFVLIANIKGGFGAVAETLANGKFLAANEKLFDPNLLSNSIFLIVMGSGFTILSSYASSQDLVQRFTTTQNIKKLNKMLFTNGVLSLATATVFYLIGTGLYVFYQVQNADSAASNIPQDQIFMYFIAYQLPVGITGLILAAIYAASQSTISTGLNSVATSWTLDIQDVISKNMSDNRRTKIAQFVSLAVGLFSIGVSIVMAHSDIKSAYEWFNSFMGLVLGLLGGVFILGFVSKKANKQGAYAALIVSTIVMVFIKYFLPPTAVSYWAYSLISISVSVVSGYIVSVLTGNKVSAPKYTTIHDITEIKADSSWEVRH | failed
2 | MGTTQLESVPEPKYWHLKTVLSEALDSEFSVGEILPNERDLAARFGVARATLRQALEQLELEGRLQRRRGVGTTVAPPRMGVAVGSEQHTWPGAAGDAWQPVDCTVAAPPPAVAGVLETGRNEQVHTVRRSRVTHGHPVAAELLYIPDFSVPDLSAIDAPSGAARARAVLRELQRLELEGQDRAVELGSARAEDAKELDRLPGAPVLVVTTRFFAEGRAAAVSVATYRADTCRLTFGDSGGVEIHHDPERRAS | failed
3 | MGTYVEPSKLSYGEYLESWFNTKRHSVGIQTAKVLKGYLNSRIIPSLGNIKLAKLTSLHMQNYVNSLRDEGLKRGTIEKIIKVIRNSLEHAIDLELITKNVAAKTKLPKADKEELEHHHHHH | failed
4 | MGVFLDKSIKDVVDGLNVRYFLPDIQREYVWLKKADEKKIEQLFDSILRGYPIGSFLFWKLQKEDIAKSDEQDSDKLNFQLYQFITNYDVRKPHNEKIRIEQINRDDLYIVANSV | failed
5 | MGVFLVLLGGIFWAISGVLAEYLFKNNYSVDWVCFYRLLSTGLILIFLSFKTQKILVFANLKESLSICIFGFFGLLLTQFGYFKAIYYTDAGTATMIQYCAPLIIMLYLCFKNKKFPKLIEIFALILIIFALFLLATKGDIEAVVLNYWGIFWAVIGAFGVAFYSLSAREVILKYGLFWIMGWASLFASFVFLLILQFDKGLIHYAFNLKAFFSMGGIVFIGTIGAFCLYLKGVEYIGALRASMIASIEPVAAALMSFLFLKTRYSLLDIFAFVLIILSVILNAKKTKAS | failed
6 | MGVISAYAVVHERAAIIDPGTAKGAEIILDEIDRSWNVEYICPTHIHIDHGGGAARLAKALDAKIIVHPRGVKHVVNPEKLWEASKAVLGEVAEIYGKPESIDESKVIAVEDEQEFDLGGERLKVFHAPGHAPHMLVYYLTNSKVLFPADAVGMCFGGVVFPLTPPPFDADAALKTLKRLKGLKVDYVAFTHYGVVELEHHHHHH | failed
7 | MGVKRKKMGKVAGFTEWTAEDLEAFRARWPIGTAQRLALELYQWTGARCVDVIRLGPQMVGRDGVLTYVQQKTGNPAHVPWTCPAFGLEEQRADLMRCLPVGSPVYMLTEYGKPRTQKGVSQWFSAAAREAGLESRTAHGLRKYRMNALAEHGASVLVMQSWVGHTTLLEVQEYTRLEHHHHHH | not failed
8 | MGVNETGYVLIYGGSSWVSQPQALETIYPAENWQEIIQDFRQKQPDLPVVVIQGPDDEQFVRSLRDYSLDIKVTSPDNVGKLTAMIAGANLMLTTDSAPLHLSVAVQTYTIALFGSTDPVKLLPNSDKLLGIKSSTGRVADILPKAVLEKVWGGLEHHHHHH | failed
9 | MGVRLVLRLVPRLVTRFTPLGLGMVALGCALVASFYSPPSFASIWDLLTNKRGVSQASVSKDSPRIELVGTLPADTELELIGFYYSSICTEKEMYFPSGDIANPQWRTKGTTSQLRQVVTSLHNASHFTQSVALQGGGACEWQLTNIQLNMSLLPSHRLWQEAQSLKKQYLAELPVAKVKDEALEKDAFKQSFDLIPTAKEADAASADSNDATITFSPIYYPIYSYAPEDKQPFDVGLKSSLQREVSDRWSLQHSRRIRLADERVTRVNFTPQIAEDYAVNIHILDRKSKVSYPDGTEFTYIKAGLRLYPYGSAESRFNSLQRSARLEDKRQLAKIYDSGIEHVFEGDKAKAEVLYRELGEAGDMESINWLRERARWGYIKDGQYWLARAAKLGDIQAQLELINQPLSVIPQGKVNTGQAKIREQQAWQTLTELTKQGIPQAVSTMAYYQVFSCSPYFNTTAALDNYRKSVKAQPDLARDAAETYYYFKEDLAQAREFFEIAAEREIDVAAEYAGILLAAEQRDPKRARYWLEKVVTAGDKQYIQQDVLGYAYFRLASLLDAGEGGDADPKRAITLYQQSIELGEGFSNDYQAKAKERLQSLQERHL | failed
10 | MGVVFAFGFYLIFIKLTGLKLMDYFPRFKENRLKMIFSILSVILAFLINWLIMKNFSFLIEIIHPIASVWIFIILIYLLLRFLFLKRVPLSNYEKKFMGNMSAIAIFLELLKIIEYVDEHNIASPITVALVFFIPVVVFFNCKYFYEMELSS | failed
11 | MGWKMQATVTEIGKHAIDDSEKMIILFGETATDTLKQHAVIQSFPEKDQVTLAEGDHLKIGDTNYTITKVGSFANSNLQSIAHSTLIFADAPTDEDDVIRNGVYLTPHQLPKITIGTTIDYLVNGA | not failed
12 | MGWVRTKALTMEQPSAPSLTRWLFAGVLMAIIGVLLFILHASGTVKIISVINIWWVSLMPAGCWLLIFCLRCYLWDRDLKAHQFLLKEAEYGQQRWEDWAGRWLAVLSSAVLLPDHISAAHWGSERPQQYGLARRINYLPVEEPVQLSAMHALLTSIEERVQCLPEELPLYVTLITDNPSPELTSSFSNLWKEHIPGRAVPDDITVTGSFSLSEVEERLKQPVLTVNLLLVIQLNGGTAYSDGLAVLLLTSDDVAQKYHLPHSSRLLRPMPLDMTNFEDDITLFLETQTVACQTPSVIGDAKKWTERSAALITQGGKMHTPWKAEDIALLEKWCGIPGPAAPWLLTALAADLVSLRKQPLLALFSSEQEHFISTITPGSEDDYTG | failed
13 | MGYLIGGDIISSSPFTKIFYGSCRKIAVFIFSVLSLTIISGILMYFIEGETGGFTSPSLSIYWAIATLLTVGYGDVVLQTSVGRAMASFVSVLGLSIIVVPIFIVIAEIFGLLSRTFSW | failed
14 | MHDIILMPCPEVSIIILTRNGKATIGECLKQVYAQNYTNFEVIVIDSASTDGTPDIVNNFPVRFFSIDVKDFGHGKTRNYGAKLSKGKYLAYLTQDASPFNEHWLENLIRNFSDEEVAGVYSRNVPRSDCDPFEARYISSGWGSDREVKSMQNCRNYKKLVFFSNTSSCIRKDTWEKFPFNELLVQTEDQDWSKRVLEAGYKIVYDPGSVVVHSHNNSLKILFKKYFDAGTAHIQIFKNRNNVYLPLIPFFSVISTFLDIRFMFFNNYETINIIKWVPRAVVRHFVEATAFWLGLHFDILPQALKRKFTASGHY | failed
15 | MHFKKSLVRSLITLAITATASTTVLANEVSGDISKFKSVGNEVNTKQKATGYIVQLKGKTAIAQAQEIGELLPTNQLVANTGNRYNAHTPAMEAYTKALENKQKQVASSIDSINILHSFKHTYNGFTAKLNAKQKAQLESHPDVIGVYEDKLETVNTANTPEFLGLTGAGGQHAMNIKGEGVIIGVIDTGVWPENPSFADDGSYSDPADLGWLGSCDTGTDEEFACNNKLIGAKYFDSSFSSQYDIQYDLGEFDSPRDADGHGSHTASTAGGNESVAAMLSGTPVGTVSGMAPRARIAAYKVCWNSDYKNPEGGDEAGCFGGDTMAAIDAAVTDGVDVINYSIGGSRTDLTVPATAAMLNATAAGVFVAVSAGNDGPDKETVGTPAPWVTSVAASTYNGTSAIVGKALDITSGTLAGSSILSVPSGFSPATVGLSGELALAEPVQACNDAPLTNGEDLAGKIALIARGSCAFTEKFLNAQNAGAVGAIIYTTEGTSPFSMGGTDPAVTITGSMISFADGQSLTASIEDGSTSVAFTDNTAAGEAVEVGNTMADFSSRGPNLNTYDIIKPDITAPGVKILAATTSAPMFGTQGETFKYLQGTSMSSPHIAGLAALFKESNSSWSPAQIKSAMMTTARQNLTKEDGTTQADPYDFGSGHVAPVSALDPGLLFDTNLADYLAFLCGQDKEAFVSGYDTSCADLATAGFSTDASQLNLASIAIAELLEPETIFRTVSNATPIASSYTATVEAPAGFDISVQTFDAAGEETEASTLDVAAEGGKASFAITVSQTETTEIEAWKFGAITWTDGAGHSVRLPLAIKAIPSVQIEVPELISGDLNRGRFRFPVKMLYSGRTSIKHAGLVAPFGTAGTVEADPAQEFEFLGAGTNYHLFHIPEGTQVARFSLSDALVTEEGSDLDLYVYRCDKWSCAQVANSLNGGSNEDVVLTNPEPRADVDVGDVYVTMIHGYSTGAATETDYTMVGWIADQAERTTRVISSRRAINGRFNYTSILTRGLPTGTTYMGAVTYFNAEGEAEGTTVLELKN | failed
